According to the supplement of paper PMC12042874:
± gives the uncertainty stated by the source.

Experiment: amyloid nucleation score (Sup35N fusion, yeast selection) (log enrichment); library NNK2; higher = more nucleation; inactive = no reads after selection
Procedure, shortened: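 Peptides of 20 random codons, each fused to Sup35N, were expressed in psi-negative yeast. Cells were induced with 100 μM copper sulfate for 24 hours and grown 7 days at 30°C on medium lacking adenine and uracil, and plasmid inserts before and after selection were Illumina-sequenced. Nucleation scores are DiMSum log enrichments of output over input reads, centred on the mode score of non-aggregating sequences, and sequences under 100 input reads were excluded.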

Substance	amyloid nucleation score
IREEGQFSLAVFSYMKVSPY	2.95 ± 0.071
CQISGCYWV	5.28 ± 0.074
RSLSNMCN	-1.24 ± 1
IRIACSGLSDRFMNRVHLHS	-0.017 ± 0.46
RLFANASGVDMEGTGYNRSD	0.359 ± 0.4
VFDVISI	-0.064 ± 0.76
IGNRQVDFISDGAG	0.034 ± 1.1
NSLVLFFSVGVLRL	1.37 ± 0.21
SFDIPT	-0.444 ± 0.63
MSGICPDQSSLYIEDTSIWL	2.96 ± 0.068
CSCQAVLLLASSRPAIKVRC	1.86 ± 0.31
FLDAFFFGWDVVVRVYSSAP	-0.153 ± 1.1
VQMGRPWTGALMVSYMIVNH	6.18 ± 0.063
HGKCVFGLPVLLQWKLGDQT	0.607 ± 0.57
ICSPFVFGFCGTNFRRVLHR	6.978 ± 0.033
SQCFERV	0.637 ± 0.36
GLFSSGRFVSADSM	-0.368 ± 0.54
NMIYYGVL	-1.24 ± 0.45
VTKVLQFCSPSYLLYSRLNV	0.709 ± 0.47
TGFGTSMFSKLYVNVNYL	5.37 ± 0.072
EKRNVVVHLIGRWSTTLYWV	1.25 ± 0.49
FVQCLWVAWGSSGSSWQKSE	5.541 ± 0.041
RNTYRRGGLPFVAYNRTSVG	0.125 ± 0.28
YAGYNISCP	inactive
TGLDFGNLLLARCMSRV	0.43 ± 0.32

Substance	amyloid nucleation score
NVMFF	1.28 ± 0.13
EFLYKLRLSLSMGCGHEELG	4.72 ± 0.061
FYFGYLTFISENHVGIQEQG	inactive
SEVHSWANGKVLTLYSRMWL	0.885 ± 0.28
RLKYHWGGFEA	0.767 ± 0.4
FLEFLDTMWW	-0.233 ± 0.56
SPLYLTLCMTLQVYGSR	4.04 ± 0.073
ISCCDRGCDAYLEVWPKLNK	-0.523 ± 1
WDNDQHIQRNLY	inactive
FCDALQISSYTSENYGIVWS	-0.685 ± 0.36
NSRGN	-0.293 ± 0.56
SFGRAENNSSARDMYV	-0.535 ± 0.28
SDLWSIPFFGFGDPPMGFFR	inactive
SRSFKVRNL	inactive
VSYYIRVYF	5.648 ± 0.054
NILRATTFCVDHLYSSFFCT	6.74 ± 0.068
SRSILLKAGWI	inactive
NCETLCVLVGAQYC	4.13 ± 0.049
PEGISNGLK	-1.44 ± 0.55
LCDIIQAF	-0.626 ± 1.1
SMILVHKSNLQFLGKDDTQS	6.539 ± 0.025
CPIDYGTSVNHDNKVSILYL	0.534 ± 0.51
LFTVLKTVWANNNTYDSKQK	-1.23 ± 0.78
YMCRVYMSNSINDFDLPHLL	2.06 ± 0.29
GWFGARRGMSIYRVHNWFVF	5.738 ± 0.048

Substance	amyloid nucleation score
YLVFKYTRGMFLVLCTPIWV	-1.17 ± 0.39
GSNCIEVFRGWVKFGMDCFW	inactive
LFDVADIDA	0.736 ± 0.74
WYCMNSGASMLCGLRQARFL	-0.715 ± 0.76
PTLHMGMPN	-0.013 ± 0.79
CGRRMYKSIVQICMFRGNLN	0.053 ± 0.79
GVSGCANVSCMCADVYPIAP	9.77 ± 0.045
YSYTTVFNIASNTTNELATC	-0.375 ± 0.2
KKERPNMSWGDHY	-0.78 ± 1
SYDPGITSSWMVRIRRVRMC	-0.001 ± 0.49
WQRLKLSEKLVGSAVPLKAG	4.44 ± 0.11
CNWGRTFCRRVSVPVRRSDL	-0.074 ± 1.1
WELHMI	-0.61 ± 1.1
IMDLAKVCEGVLSSGRVALI	0.096 ± 0.29
SVGVTVSRVASREGSSRSRA	0.573 ± 0.36
LARFSDMDKMKGSVGFWALK	-0.014 ± 0.62
NPNELLLSSCFFHYLVKPWG	inactive
AMGVC	-0.061 ± 0.41
HLLHGPFMSLGG	-0.973 ± 1
SSFRSLRSRHPPGTLPPDTP	0.919 ± 0.3
CHGNGQLK	inactive
AYSIHPLNKGVKVSYRLAGH	0.306 ± 0.2
KSVGVQALMLAKGIYFSING	1.53 ± 0.28
GCTCYWFS	1.63 ± 0.15
LMDRLFMKCDGLAG	0.216 ± 0.53

Substance	amyloid nucleation score
HLGSDRGDAWVANVKPERWD	1.03 ± 0.31
RPSNKT	0.761 ± 0.56
SWRIDNVGSRWSTMVCC	6.09 ± 0.063
KVSYMFLVTLSYGSWFPSSM	-0.545 ± 0.45
HISCMKLLSRLGYTCESLMW	-1.19 ± 0.55
IKGTQSVRDTVSLVVIKDVW	0.627 ± 0.4
SSASFSVHQYCYLLNPSF	1.45 ± 0.28
LYSRSTSILDERWSTVIILL	2.5 ± 0.23
KAANVAEDSR	0.978 ± 0.47
PRPVLAAALAKPLGTS	0.87 ± 0.23
RNSSVGT	inactive
HLPGYSPIDCRKGLVLGRCT	0.027 ± 0.54
WKIQACVSYQQGAVRGVCVD	0.139 ± 0.34
IILRSCMYCGSLAIIKGWMS	2.91 ± 0.12
GFKSFEHL	1.91 ± 0.14
PVNRQNFFSCD	-1.67 ± 0.62
VGDWVQQVVFTRRSTSSRRV	inactive
RWHFDYRVKQV	-0.058 ± 0.37
ASGCLASEDKMGVYLWVV	0.171 ± 0.65
SSAYQMSEY	0.072 ± 1.1
FILVYTRPTLESLGEWWIRC	-0.628 ± 0.63
MLVLSSFNCRLFKINRLR	-0.268 ± 0.45
EKGVGL	-0.449 ± 0.5
VKGVWWYRIMS	0.785 ± 0.51
FVNFMGWTMSNINNVYFGHK	7.303 ± 0.055

Substance	amyloid nucleation score
TDMWPVYANRVFYNMSWSRP	inactive
AYGKLSE	-0.68 ± 0.5
HAPPNCVSSIHSRRVSSWHE	0.333 ± 0.65
FNRFLKYMPSSWLWQGCSVQ	-0.451 ± 0.36
EEKDQRLISDSWGMF	-0.013 ± 0.56
VWLTKIIGPVRKLVKNTLGC	5.542 ± 0.047
MDNNVNNRSPFLICRMMDNI	inactive
HKLFHLDSVQVYKQYGKEAI	1.16 ± 0.18
NYVNICFNLKFQVRHST	4.41 ± 0.089
NSSMTRLGNTYLYHNNLHLV	-1.25 ± 0.76
STSVWRGLSRPRNVQRRLDT	-0.985 ± 0.42
HVRVYHPGQMNCSRYNTMQ	0.217 ± 0.65
TETNRDWRLGDDW	5.293 ± 0.047
NYEGNGRVVITLLLGSNWYR	4.04 ± 0.086
IKTIADIYCISQSRIGSKLT	inactive
CESENKQYKNRLEIP	-2.05 ± 0.54
FSLLTTFSLTNGGPAFLMIR	inactive
LSVLTNDSGLFKFGFIRCVW	-1.21 ± 0.75
GHGFCDNVTSP	-1.2 ± 1.1
YNVDTVYLRGSLLRSYDWCF	-2.32 ± 1.1
ERLGSLFNDGQANS	0.21 ± 0.41
YVLKVVIRRLRRSCVSCTWH	-0.109 ± 0.25
HFWVLFMLEETQSKFYLQST	-0.923 ± 0.64
CLYLACIEGWLP	3.24 ± 0.056
TLWLMPDLRTRLEAGCRYKT	-0.08 ± 0.44

Substance	amyloid nucleation score
LLNILISRAYLWSGFFERFL	inactive
ALAYAWYLVGLLFSKVWRYS	0.095 ± 0.42
VIGCAQWFYFADMRGMPRNQ	4.95 ± 0.076
LCIIWVVRFYALWWSEPMGW	1.14 ± 0.18
NKAHINW	0.476 ± 0.6
TEGHVNSQIRWNLVY	-0.348 ± 0.36
NYRFVCWDYISWVMVWTSI	inactive
HFDFGFIGRDVIDVIDVRTN	0.039 ± 0.46
LYSYDLTC	1.78 ± 0.13
RTRRSSTGGRNEASGNRSAG	2.87 ± 0.13
FGSIHGGRDEGPFLLGSSNV	-0.675 ± 1.1
ARKISV	inactive
RVLSGRLTTNVDARGCELDR	1.3 ± 0.29
DCRDLFLKKVWGYVGRLCEV	inactive
SFGDTSKRWLFAVGGCKCRL	0.371 ± 0.51
SCLVVLHIIAVISMVFSSIL	inactive
WWTVKLLMSEVVFRWELEYI	5.735 ± 0.04
VNIDGRDRDNFVNGRSIMLR	inactive
GVTVKGAVIFYRY	6.47 ± 0.074
LYKAGIGILLTGVILVF	-1.12 ± 0.6
PMDEWHSFPLQNKLRVIGCG	0.115 ± 0.23
QLVLKVRLWVDGLYVLEWGW	-0.042 ± 0.49
FNRKTKWAYFWLVHGRNR	5.213 ± 0.052
AFNDIYIMKMHIFGKSIVLL	inactive
SCLIGLRLVLSLTAHDTETA	3.97 ± 0.11

Substance	amyloid nucleation score
YHLSELVMRREWSDWYNVCG	0.126 ± 0.43
LAFDK	inactive
GLVLWRRHFKAAASVSMQSW	0.216 ± 0.4
VNYSYVATSYRLVAILSNVW	-1.36 ± 0.62
SNIYLVPRFIWP	-0.338 ± 0.61
MMIFLGLTSFKFLMSAVNTM	0.628 ± 0.38
AGLIRCLLRGTCNRNFFSLY	inactive
SRDVAAYNRRRRFAVLGWGE	0.44 ± 0.38
VHRLC	1.38 ± 0.47
LHSYVFTKGSRTQCRWRKNP	0.07 ± 0.28
WYKRVVFPMP	-0.442 ± 1
ISAETPMIAFCLVPLNPRSV	1.06 ± 0.68
CKIRNDSSSSRLVIHILDTA	6.357 ± 0.059
VMTARHVLWSNLRVRPRGHD	0.867 ± 0.67
NSEHTNLSSHLGNIRFINCL	0.037 ± 0.79
GVCVQGMFSVSYATILYKVA	1.02 ± 0.2
FVLWIRYALRVTDYTVYMGA	0.436 ± 0.39
WSGWSQGDGLVQGQVMRAFV	-0.284 ± 0.79
ILSFM	-1.27 ± 1
GIISRMGAVSLNLMLQKRAS	0.8 ± 0.46
GHYLYGFSKNPASENLNAFQ	-1.68 ± 0.75
